Laboratory results reported in patent US20090280128A1 (SBI BIOTECH, published 2009).
Positions count from the first letter of the chain named.

Columns and labels:
[1] = target: T1, C-FLAG ILT7 (human ILT7 with FLAG tag at the C terminus, co-expressed with Myc-FcRγ) (human, UniProt P59901 17-499); assay: cell-based or functional assay
[2] = target: T2, C-FLAG ILT1 (human ILT1 with a FLAG tag at the C terminus, on 293T cells) (human, UniProt Q8N149 24-483); assay: flow cytometry on 293T cells co-transfected with C-FLAG ILT1, ILT2, ILT3 and Myc-FcRγ
T2 construct: Cloned from a human tonsil cDNA library; also called pME18X-C-FLAGILT1; pME18X-C-FLAG ILT1
T2 sequence (Q8N149 other isoform, or with tags, fused parts or gaps limits assumed): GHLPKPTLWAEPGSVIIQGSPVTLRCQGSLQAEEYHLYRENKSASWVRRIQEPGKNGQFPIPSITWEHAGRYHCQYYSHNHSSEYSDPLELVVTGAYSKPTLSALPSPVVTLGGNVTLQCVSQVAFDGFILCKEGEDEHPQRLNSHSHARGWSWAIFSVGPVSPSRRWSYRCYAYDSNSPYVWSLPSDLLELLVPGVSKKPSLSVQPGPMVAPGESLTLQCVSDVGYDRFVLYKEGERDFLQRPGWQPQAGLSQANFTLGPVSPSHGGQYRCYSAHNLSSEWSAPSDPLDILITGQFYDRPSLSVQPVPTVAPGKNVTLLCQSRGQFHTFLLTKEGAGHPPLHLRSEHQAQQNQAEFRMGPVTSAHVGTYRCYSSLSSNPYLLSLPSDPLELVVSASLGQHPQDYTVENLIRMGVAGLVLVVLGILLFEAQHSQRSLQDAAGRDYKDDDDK

[3] = target: ILT2 (on 293T cells, from pcDNA4.1-ILT2) (Homo sapiens (Human), UniProt Q8NHL6 24-650); assay: as above
ILT2 (on 293T cells, from pcDNA4.1-ILT2), sequence (Q8NHL6 other isoform, or with tags, fused parts or gaps limits assumed): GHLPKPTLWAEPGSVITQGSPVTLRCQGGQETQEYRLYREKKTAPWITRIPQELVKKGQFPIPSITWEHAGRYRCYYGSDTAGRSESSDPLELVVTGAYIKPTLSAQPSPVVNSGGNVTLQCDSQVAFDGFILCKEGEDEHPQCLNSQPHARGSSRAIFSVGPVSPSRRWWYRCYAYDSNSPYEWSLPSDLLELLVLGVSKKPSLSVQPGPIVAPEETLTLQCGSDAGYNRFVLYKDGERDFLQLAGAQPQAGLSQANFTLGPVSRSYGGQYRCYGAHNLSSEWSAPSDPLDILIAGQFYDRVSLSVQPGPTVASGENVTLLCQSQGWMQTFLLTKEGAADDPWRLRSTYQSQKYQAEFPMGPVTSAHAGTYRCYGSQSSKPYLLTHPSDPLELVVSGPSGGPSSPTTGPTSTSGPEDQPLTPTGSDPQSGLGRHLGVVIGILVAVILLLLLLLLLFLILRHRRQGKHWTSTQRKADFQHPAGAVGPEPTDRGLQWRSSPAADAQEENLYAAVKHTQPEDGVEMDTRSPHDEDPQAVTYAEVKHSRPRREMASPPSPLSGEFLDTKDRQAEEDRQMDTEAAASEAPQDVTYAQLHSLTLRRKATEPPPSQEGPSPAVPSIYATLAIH

[4] = target: ILT3 (on 293T cells, from pcDNA4.1-ILT3) (Homo sapiens (Human), UniProt Q8NHJ6 22-448); assay: as above
ILT3 (on 293T cells, from pcDNA4.1-ILT3), sequence (Q8NHJ6 22-448 D223G/Q414R limits assumed): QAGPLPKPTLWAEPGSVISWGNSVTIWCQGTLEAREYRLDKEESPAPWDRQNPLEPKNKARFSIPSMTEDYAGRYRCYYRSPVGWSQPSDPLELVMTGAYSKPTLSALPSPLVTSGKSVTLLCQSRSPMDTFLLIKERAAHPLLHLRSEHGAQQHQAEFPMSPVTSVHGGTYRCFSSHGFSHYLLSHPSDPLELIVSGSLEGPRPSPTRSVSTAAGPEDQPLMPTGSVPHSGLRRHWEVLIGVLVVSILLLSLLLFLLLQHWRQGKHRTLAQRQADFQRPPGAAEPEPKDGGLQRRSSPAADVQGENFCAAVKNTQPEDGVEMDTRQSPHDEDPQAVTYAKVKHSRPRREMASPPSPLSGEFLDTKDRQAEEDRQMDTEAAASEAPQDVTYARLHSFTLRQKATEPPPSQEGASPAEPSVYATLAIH

[5] = target: T3, human ILT7 expressed on human IPCs (interferon producing cells, BDCA-2 positive cells of peripheral blood … (human, UniProt P59901 17-499)); assay: flow cytometry, multiple staining of human peripheral blood lymphocytes (Lineage-1, CD123, BDCA-2)
T3 construct: Natural protein on primary human cells; GenBank NM-012276 is printed for the cDNA; also called immunoglobulin-like transcript-7; ILT7 molecules expressed on human IPCs
T3 sequence (P59901 other isoform, or with tags, fused parts or gaps): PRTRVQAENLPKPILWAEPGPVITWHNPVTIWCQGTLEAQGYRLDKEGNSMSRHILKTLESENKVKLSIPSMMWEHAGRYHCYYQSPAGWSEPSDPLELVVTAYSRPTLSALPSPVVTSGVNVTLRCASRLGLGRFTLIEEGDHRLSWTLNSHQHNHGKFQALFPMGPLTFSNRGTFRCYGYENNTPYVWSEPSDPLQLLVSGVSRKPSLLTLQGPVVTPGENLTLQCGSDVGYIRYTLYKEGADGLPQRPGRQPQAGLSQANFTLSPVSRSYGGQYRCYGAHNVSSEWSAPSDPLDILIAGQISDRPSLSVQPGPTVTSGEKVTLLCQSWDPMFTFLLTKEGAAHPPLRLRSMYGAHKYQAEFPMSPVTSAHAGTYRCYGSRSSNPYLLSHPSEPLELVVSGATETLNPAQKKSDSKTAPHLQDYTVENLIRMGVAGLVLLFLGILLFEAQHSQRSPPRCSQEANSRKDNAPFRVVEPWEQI

[6] = target: T3, human ILT7 expressed on human IPCs …; assay: flow cytometry on human lymphocytes, with anti-CD123 antibody
[7] = target: T4, N-FLAG ILT7 (human ILT7 with FLAG tag attached to the N terminus, co-expressed with Myc-FcRγ on 293T cells) (human, UniProt P59901 17-499); assay: flow cytometry on 293T cells co-expressing N-FLAG ILT7 and Myc-FcRγ
T4 construct: also called pME18X-N-FLAG ILT7; ILT7 molecules with a FLAG tag
T4 sequence (P59901 other isoform, or with tags, fused parts or gaps): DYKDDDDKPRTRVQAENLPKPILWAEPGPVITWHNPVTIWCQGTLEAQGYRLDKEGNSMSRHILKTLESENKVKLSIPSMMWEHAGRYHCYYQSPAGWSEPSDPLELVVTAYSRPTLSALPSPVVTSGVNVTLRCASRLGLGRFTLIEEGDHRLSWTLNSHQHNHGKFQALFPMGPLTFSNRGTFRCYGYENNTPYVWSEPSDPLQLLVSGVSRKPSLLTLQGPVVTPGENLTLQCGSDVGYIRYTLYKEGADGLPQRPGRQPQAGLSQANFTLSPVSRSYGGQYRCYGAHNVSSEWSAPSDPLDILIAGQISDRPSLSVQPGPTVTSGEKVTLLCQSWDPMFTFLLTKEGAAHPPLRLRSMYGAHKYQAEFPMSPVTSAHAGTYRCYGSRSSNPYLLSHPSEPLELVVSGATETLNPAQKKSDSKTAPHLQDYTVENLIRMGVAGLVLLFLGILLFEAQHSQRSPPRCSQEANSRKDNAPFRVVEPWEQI

[8] = target: T1, C-FLAG ILT7 (human ILT7 with FLAG tag …); assay: flow cytometry of hybridoma supernatant on 293T cells transfected with C-FLAG ILT7 and Myc-FcRγ
[9] = target: T3, human ILT7 expressed on human IPCs …; assay: flow cytometry as in B of Example 2 (human peripheral blood lymphocytes, BDCA-2 positive cells)

T1 sequence (P59901 other isoform, or with tags, fused parts or gaps): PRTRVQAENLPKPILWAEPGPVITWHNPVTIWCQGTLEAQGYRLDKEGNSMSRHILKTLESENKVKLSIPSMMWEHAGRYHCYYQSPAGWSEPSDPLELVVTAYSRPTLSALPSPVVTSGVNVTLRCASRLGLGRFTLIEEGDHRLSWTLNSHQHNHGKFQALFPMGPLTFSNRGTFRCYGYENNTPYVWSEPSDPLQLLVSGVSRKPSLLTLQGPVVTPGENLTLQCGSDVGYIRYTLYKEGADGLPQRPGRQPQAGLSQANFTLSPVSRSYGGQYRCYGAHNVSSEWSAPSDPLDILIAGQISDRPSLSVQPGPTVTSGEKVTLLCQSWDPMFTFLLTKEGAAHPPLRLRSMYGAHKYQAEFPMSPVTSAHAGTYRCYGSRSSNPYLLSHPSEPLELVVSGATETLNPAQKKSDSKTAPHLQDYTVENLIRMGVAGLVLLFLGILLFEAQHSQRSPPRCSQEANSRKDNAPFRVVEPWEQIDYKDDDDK

B1: anti-ILT7 antibody #17 (mouse anti-human ILT7 monoclonal antibody produced by hybridoma #17, FERM BP-10705) (antibody, V domains shown)
VH: QVQLKQSGAELVRPGASVKLSCKTSGYIFTSYWIHWVKQRSGQGLEWIARIYPGTGSTYYNEKFKGKATLTADKSSSTAYMQLSSLKSEDSAVYFCARYPTYDWYFDVWGAGTTVTVSS
VL: DIVLTQSPATLSVTPGDRVSLSCRASQSISNYLHWYQQKSHESPRLLIKYASQSISGIPSRFSGSGSGTDFTLSINSVETEDFGMYFCQQSNSWPLTFGAGTKLELK
notes: Mouse hybridoma antibody as tested; also called ILT7#17
In the case of B1, the “APC fluorescence intensity ratio (%), 37 °C against 4 °C (internalization on ILT7-CHO cells)” value [1] is reported as 95.4%, the “FITC fluorescence intensity ratio (%), 37 °C against 4 °C (internalization on ILT7-CHO cells)” value [1] is reported as 44.5% and the binding result [2] is reported as “no binding”. B1: no binding [3]; no binding [4]; binds [5].

B2: anti-ILT7 antibody #11 (mouse anti-human ILT7 monoclonal antibody produced by hybridoma #11, FERM BP-10704) (antibody, V domains shown)
VH: DVQLQESGPGLVKPSQSLSLTCTVTGYSITSDYAWNWIRQFPGNKLEWMGYISYSGSTSYNPSLKSRISITRDTSKNQFFLQLNSVTTEDTATYYCARSPPYYAMDYWGQGTSVTVSS
VL: DIVMTQSHKFMSTSVGDRVSITCKASQDVGTAVAWYQQKPGQSPKLLIYWASTRHTGVPDRFTGSGSGTDFTLTISNVQSEDLADYFCQQYSSYPLTFGAGTKLELK
notes: Mouse hybridoma antibody as tested; also called ILT7#11; anti-ILT7 antibody 411
B2: binds [6]; binds [7]; no binding [2]. B2: no binding [3]; no binding [4]; binds [8].

B3: mouse anti-human ILT7 antibody #37 (monoclonal antibody produced by hybridoma #37) (antibody, V domains shown)
VH: B2 VH with S99A, P100L, Y102L, Y103P, A104W, M105F, D106A, S113L, S118A
VL: B2 VL with L96Y, A100G, L106I
notes: Mouse hybridoma antibody; also called ILT7#37; ILT7437
In the case of B3, the “APC fluorescence intensity ratio (%), 37 °C against 4 °C (internalization on ILT7-CHO cells)” value [1] is reported as 98.2%, the “FITC fluorescence intensity ratio (%), 37 °C against 4 °C (internalization on ILT7-CHO cells)” value [1] is reported as 55.9% and the binding result [9] is reported as “binds”.
